Assays:
Assay in all cases: cell-based or functional assay
[1] = biological target: IL-2Rβ and common γ chain on 32Dβ cells
IL2Rαβγ on CTLL2 cells = biological target: IL2Rαβγ on CTLL2 cells
IL-21R on B9 cells = biological target: IL-21R on B9 cells

Sequence of IL2Rαβγ on CTLL2 cells (P01590 22-268, chain 1 of 3): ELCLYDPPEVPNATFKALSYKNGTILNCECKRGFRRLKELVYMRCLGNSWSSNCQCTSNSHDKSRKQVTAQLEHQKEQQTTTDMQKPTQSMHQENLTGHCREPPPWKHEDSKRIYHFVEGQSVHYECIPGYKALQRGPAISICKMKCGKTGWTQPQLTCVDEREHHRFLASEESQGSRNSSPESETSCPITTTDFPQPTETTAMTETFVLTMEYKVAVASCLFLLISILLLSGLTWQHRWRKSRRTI
Sequence of IL2Rαβγ on CTLL2 cells (P16297 27-539, chain 2 of 3, further chain): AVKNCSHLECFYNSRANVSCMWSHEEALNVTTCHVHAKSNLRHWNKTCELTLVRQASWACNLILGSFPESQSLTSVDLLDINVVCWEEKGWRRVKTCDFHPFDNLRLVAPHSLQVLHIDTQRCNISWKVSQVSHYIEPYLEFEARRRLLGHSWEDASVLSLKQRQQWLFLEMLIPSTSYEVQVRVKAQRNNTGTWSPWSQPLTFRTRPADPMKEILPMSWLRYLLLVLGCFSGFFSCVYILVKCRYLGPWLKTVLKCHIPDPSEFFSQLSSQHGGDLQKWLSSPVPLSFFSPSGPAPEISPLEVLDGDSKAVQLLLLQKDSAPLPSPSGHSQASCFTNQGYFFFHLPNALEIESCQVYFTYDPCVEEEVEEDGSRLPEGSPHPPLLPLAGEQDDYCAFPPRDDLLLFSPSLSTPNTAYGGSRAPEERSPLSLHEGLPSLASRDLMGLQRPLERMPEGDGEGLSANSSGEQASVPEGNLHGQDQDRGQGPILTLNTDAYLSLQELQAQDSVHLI
Sequence of IL2Rαβγ on CTLL2 cells (P34902 23-369, chain 3 of 3, further chain): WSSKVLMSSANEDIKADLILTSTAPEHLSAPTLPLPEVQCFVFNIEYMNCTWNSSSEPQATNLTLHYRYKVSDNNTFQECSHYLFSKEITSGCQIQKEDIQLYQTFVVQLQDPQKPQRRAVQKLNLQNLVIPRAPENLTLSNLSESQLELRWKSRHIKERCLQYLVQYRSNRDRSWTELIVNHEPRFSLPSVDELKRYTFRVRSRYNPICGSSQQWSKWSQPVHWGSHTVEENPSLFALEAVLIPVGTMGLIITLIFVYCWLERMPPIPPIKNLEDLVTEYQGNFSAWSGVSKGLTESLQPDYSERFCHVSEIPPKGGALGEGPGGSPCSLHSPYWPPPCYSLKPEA

Row | EC50, 32Dβ cell proliferation (WST1) [1] [nM] | EC50, CTLL-2 cell proliferation (WST1) (IL2Rαβγ on CTLL2 cells) [nM] | EC50, B9 cell proliferation (WST1) (IL-21R on B9 cells) [nM] | Substance
1 | 0.14 | 0.548 |  | recombinant IL-2 (from UniProt P60568 21-153) (ligand)
2 |  |  | 72.5 | recombinant IL-21 (from UniProt Q9HBE4 32-162) (ligand)
